Test results from patent publication US20240116985A1 (published 2024).
Starred links: 1 amine or outer side, 2 acyl side, 3 side chain; linkers in the order of their positions; H or OH if unused. Positions of bridges follow the written chain, without caps; N, C: chain ends. Non-standard residues stand in square brackets, D forms with d. Primed or numbered codes have the meaning given here. No end group written: not given here. *: point of attachment. PyrS2(3) = (S)-3-amino-1-((pent-4-en-1-yloxy)carbonyl)pyrrolidine-3-carboxylic acid, stapling residue, C=CCCCOC(=O)N1CC[C@@](N[*:1])(C(=O)[*:2])C1; PyrS2″ = (S)-3-amino-1-((pent-4-en-1-yloxy)carbonyl)pyrrolidine-3-carboxylic acid (stapling residue), C=CCCCOC(=O)N1CC[C@@](N[*:1])(C(=O)[*:2])C1; B5(4) = 2,2-bis(4-pentenyl)glycine = 2-amino-2-(pent-4-en-1-yl)hept-6-enoic acid (stitching residue), C=CCCCC(CCCC=C)(N[*:1])C(=O)[*:2]; B5(5) = 2,2-bis(4-pentenyl)glycine, 2-amino-2-(pent-4-en-1-yl)hept-6-enoic acid (stitching residue), C=CCCCC(CCCC=C)(N[*:1])C(=O)[*:2]; TfeGA = (S)-2-amino-3-((carboxymethyl)(2,2,2-trifluoroethyl)amino)propanoic acid, O=C([C@H](CN(CC(=O)[*:3])CC(F)(F)F)N[*:1])[*:2]; PyrS2 = (S)-3-amino-1-((pent-4-en-1-yloxy)carbonyl)pyrrolidine-3-carboxylic acid, C=CCCCOC(=O)N1CC[C@@](N[*:1])(C(=O)[*:2])C1; (Morph)GlnR = (S)-2-amino-5-morpholino-5-oxopentanoic acid, O=C(CC[C@H](N[*:1])C(=O)[*:2])N1CCOCC1; B5(3) = 2,2-bis(4-pentenyl)glycine (stitching residue), C=CCCCC(CCCC=C)(N[*:1])C(=O)[*:2]; B5″ = 2,2-bis(4-pentenyl)glycine, stitching residue, C=CCCCC(CCCC=C)(N[*:1])C(=O)[*:2]; Phe(3-COOH) = N[C@@H](Cc1cccc(C(=O)O)c1)C(=O)O; 2F3MeF = Cc1cccc(C[C@H](N[*:1])C(=O)[*:2])c1F; Phe(2-Cl) = N[C@@H](Cc1ccccc1Cl)C(=O)O; Bta = N[C@@H](Cc1csc2ccccc12)C(=O)O; αAllylPro = C=CC[C@@]1(C(=O)O)CCCN1; tBuAla = CC(C)(C)C[C@H](N)C(=O)O; 3Thi = N[C@@H](Cc1ccsc1)C(=O)O; PyrS2(4) = not defined here; NH(CH2)6NH2 = NCCCCCCN*; Alaol = C[C@@H](CO)N*; Aib = CC(C)(N)C(=O)O

Columns and labels:
Assay in all cases: cell-based or functional assay
[1] = target: T1, B-cat-Halo (beta-catenin HaloTag construct transfected into HEK293 cells) (UniProt P35222 1-781)
T1 sequence (looked up): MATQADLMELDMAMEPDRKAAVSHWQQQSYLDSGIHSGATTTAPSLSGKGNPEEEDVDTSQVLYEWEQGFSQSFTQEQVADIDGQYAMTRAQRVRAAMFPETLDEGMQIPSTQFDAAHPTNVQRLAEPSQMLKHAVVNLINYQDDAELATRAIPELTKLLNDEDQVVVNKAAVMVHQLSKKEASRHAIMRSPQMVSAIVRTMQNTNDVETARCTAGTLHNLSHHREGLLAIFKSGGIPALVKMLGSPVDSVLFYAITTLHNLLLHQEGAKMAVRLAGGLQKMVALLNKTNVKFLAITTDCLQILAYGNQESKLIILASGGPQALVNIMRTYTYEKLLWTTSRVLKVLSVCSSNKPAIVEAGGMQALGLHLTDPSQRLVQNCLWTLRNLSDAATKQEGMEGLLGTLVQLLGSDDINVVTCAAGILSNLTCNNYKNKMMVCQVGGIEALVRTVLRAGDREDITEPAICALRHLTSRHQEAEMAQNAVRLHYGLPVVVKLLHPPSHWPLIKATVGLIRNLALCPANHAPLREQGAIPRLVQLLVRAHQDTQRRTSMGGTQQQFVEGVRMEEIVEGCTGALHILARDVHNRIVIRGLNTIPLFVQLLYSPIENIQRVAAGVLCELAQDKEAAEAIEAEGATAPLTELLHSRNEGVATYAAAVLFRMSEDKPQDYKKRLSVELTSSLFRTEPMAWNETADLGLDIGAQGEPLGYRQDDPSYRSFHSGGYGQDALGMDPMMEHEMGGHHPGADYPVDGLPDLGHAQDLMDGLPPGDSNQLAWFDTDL

[2] = target: T2, beta-catenin in DLD1 TCF/LEF luciferase reporter cells (UniProt P35222 1-781)
T2 sequence (looked up): T1 sequence (looked up)

B-cat-Halo [3] = target: T3, B-cat-Halo (UniProt P35222 1-781)
T3 sequence (looked up): T1 sequence (looked up)

[4] = target: T4, beta-catenin in DLD1 TCF/LEF luciferase reporter cells (UniProt P35222 1-781); remark: listed apart in the source
T4 sequence (looked up): T1 sequence (looked up)

B-cat-Halo [5] = target: T5, B-cat-Halo (UniProt P35222 1-781); remark: listed apart in the source
T5 sequence (looked up): T1 sequence (looked up)

[6] = target: T6, beta-catenin in DLD1 TCF/LEF luciferase reporter cells (UniProt P35222 2-781)
T6 sequence (looked up): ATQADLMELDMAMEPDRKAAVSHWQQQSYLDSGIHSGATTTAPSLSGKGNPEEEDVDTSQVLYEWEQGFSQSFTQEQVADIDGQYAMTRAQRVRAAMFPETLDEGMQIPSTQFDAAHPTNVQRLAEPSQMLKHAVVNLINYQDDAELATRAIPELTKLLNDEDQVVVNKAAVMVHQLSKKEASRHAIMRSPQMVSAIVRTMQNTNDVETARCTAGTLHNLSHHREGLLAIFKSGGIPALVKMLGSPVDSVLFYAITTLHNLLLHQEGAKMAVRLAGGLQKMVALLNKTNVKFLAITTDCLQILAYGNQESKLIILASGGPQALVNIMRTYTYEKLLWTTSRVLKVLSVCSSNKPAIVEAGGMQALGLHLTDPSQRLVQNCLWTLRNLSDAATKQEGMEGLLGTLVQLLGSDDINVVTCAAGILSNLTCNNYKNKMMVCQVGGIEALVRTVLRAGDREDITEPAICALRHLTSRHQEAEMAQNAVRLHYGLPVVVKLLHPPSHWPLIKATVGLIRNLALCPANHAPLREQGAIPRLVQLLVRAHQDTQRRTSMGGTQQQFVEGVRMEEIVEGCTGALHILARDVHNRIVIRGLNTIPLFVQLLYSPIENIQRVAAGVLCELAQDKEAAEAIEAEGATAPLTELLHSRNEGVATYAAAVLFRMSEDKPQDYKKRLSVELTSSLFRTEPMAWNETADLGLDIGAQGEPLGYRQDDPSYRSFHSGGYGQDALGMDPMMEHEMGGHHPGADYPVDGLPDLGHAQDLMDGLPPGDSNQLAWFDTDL

Bcat-Halo = target: T7, Bcat-Halo (UniProt P35222 1-781)
T7 sequence (looked up): T1 sequence (looked up)

[7] = target: T8, B-cat-Halo (Nano-BRET construct expressed in HEK293 cells) (UniProt P35222 1-781)
T8 sequence (looked up): T1 sequence (looked up)

[8] = target: T9, beta-catenin in DLD1 TCF/LEF luciferase reporter cells (UniProt P35222 2-781); remark: listed apart in the source
T9 sequence (looked up): T6 sequence (looked up)

[9] = target: T10, B-cat-Halo (beta-catenin HaloTag NanoBRET construct expressed in HEK293 cells) (UniProt P35222 2-781)
T10 sequence (looked up): T6 sequence (looked up)

B1: I-1920 (peptide)
peptide: Ac-[αAllylPro]D[tBuAla][B5(4)]D[Phe(3-COOH)][Aib]AFL[PyrS2(4)][3Thi][Bta]A-NH2
modifications: staple 1-4, 4-11; not fully specified; printed as Ac-PL3-Asp-Npg-B5-Asp-3COOHF-Aib-Ala-Phe-Leu-PyrS2-3Thi-BztA-Ala-NH2; reading uncertain
For B1, the “NanoBRET Abs IC50” value [1] was 3.1 µM and the “DLD1 4% Abs IC50” value [2] was 1.2 µM.

With Ac-[αAllylPro]D[tBuAla][B5(4)]D[Phe(3-COOH)]AAFL[PyrS2][3Thi][Bta]NLLLLL-NH2 (staple 1-4, 4-11; also: later eluting staple isomer) [I-2280] the “NanoBRET Abs IC50” value (B-cat-Halo [3]) was > 20 µM and the “DLD1 4% Abs IC50” value [4] was > 20 µM.

Ac-[αAllylPro]D[tBuAla][B5″]D[TfeGA]AAFN[PyrS2(3)][3Thi][Bta]Q-NH2 (staple 1-4, 4-11) [I-761] was tested, and the “NanoBRET IC50” value (B-cat-Halo [5]) was 5 µM.

Ac-[αAllylPro]D[tBuAla][B5(4)]D[Phe(3-COOH)][(AcPpz)GlnR]AFL[PyrS2″][2F3MeF][Bta]A-NH2 (staple 1-4, 4-11) [I-2319] was tested, and the “DLD1 4% Abs IC50” value [6] was 1.7 µM and the “NanoBRET Abs IC50” value (Bcat-Halo) was 1 µM.

With Ac-[αAllylPro]D[tBuAla][B5(5)]DDAAFN[PyrS2″][3Thi][Bta]Q-NH2 (staple 1-4, 4-11) [I-686] the “NanoBRET IC50” value (B-cat-Halo [5]) was 7.5 µM.

With Ac-[αAllylPro]D[tBuAla][B5(4)]D[Phe(3-COOH)][(Morph)GlnR]AFL[PyrS2″][2F3MeF][Bta]A-NH2 (staple 1-4, 4-11) [I-2315] the “DLD1 4% Abs IC50” value [6] was 1.5 µM and the “NanoBRET Abs IC50” value (Bcat-Halo) was 1.2 µM.

B2: I-873 (peptide)
peptide: Ac-[αAllylPro]D[tBuAla][B5(3)]DDAAFN[PyrS2″][3Thi][Bta]QAA
modifications: staple 1-4, 4-11; not fully specified; printed as Ac-PL3-Asp-Npg-B5-Asp-Asp-Ala-Ala-Phe-Asn-PyrS2-3Thi-BztA-Gln-Ala-Ala
In the case of B2, the “NanoBRET IC50” value [7] is reported as 8.9 µM.

B3: I-882 (peptide)
peptide: Ac-[αAllylPro]D[tBuAla][B5(3)]DDAAFN[PyrS2″][3Thi][Bta]Q-{NH(CH2)6NH2}
modifications: staple 1-4, 4-11; not fully specified; printed as Ac-PL3-Asp-Npg-B5-Asp-Asp-Ala-Ala-Phe-Asn-PyrS2-3Thi-BztA-Gln-6AmHex
With B3 the “NanoBRET IC50” value [7] was 22.5 µM.

Ac-[αAllylPro]D[tBuAla][B5(3)]DDAAFN[PyrS2″][Phe(2-Cl)][Bta]-Alaol (staple 1-4, 4-11) [I-1081] was tested, and the “DLD1 4% Abs IC50” value [8] was 10.6 µM and the “NanoBRET Abs IC50” value [9] was 16.7 µM.

B4: I-1918 (peptide)
peptide: Ac-[αAllylPro]D[tBuAla][B5(4)]D[Phe(3-COOH)]QAFL[PyrS2(4)][3Thi][Bta]A-NH2
modifications: staple 1-4, 4-11; not fully specified; printed as Ac-PL3-Asp-Npg-B5-Asp-3COOHF-Gln-Ala-Phe-Leu-PyrS2-3Thi-BztA-Ala-NH2; reading uncertain
In the case of B4, the “NanoBRET Abs IC50” value [1] is reported as 4 µM and the “DLD1 4% Abs IC50” value [2] is reported as 6.5 µM.
